A word on the stoichiometry N: it is the number of molecules, sites or subunits per partner or assembly.

Assay [1] has as its target MOSP expressed in E. coli with a PelB signal sequence (Treponema denticola). Put plainly: native gel or EMSA; BN-PAGE and immunoblot of the 2% DDM extract of the outer membrane fraction of E. coli expressing PelB-MOSP. (Mobility shift assays separate free from complexed probe on a gel.)
Assay [2] has as its target MOSP^C, C-terminal domain of the major outer sheath protein (recombinant, refolded) (Treponema denticola). Put plainly: SEC + other: negative-stain TEM of nanodiscs; MOSP^C incorporated into small D7 DMPC nanodiscs, S200 column, Tris-NaCl buffer pH 7.5; peaks examined by SDS-PAGE and TEM.
For assay [3] the target is unchanged. Put plainly: negative-stain TEM of nanodiscs; MOSP^C refolded in DDM and incorporated into large MSP1E3D1 (E3D1) DMPC nanodiscs; SEC peak fractions, uranyl formate stain, averaged images.
Assay [4] has as its target major outer sheath protein, native outer membrane conformer (Treponema denticola ATCC 35405 (endogenous)). Put plainly: SDS-PAGE without boiling, immunoblot; NP-40 supernatant (OM conformer) and TX-114 aqueous phase (periplasmic conformer) of T. denticola in Laemmli buffer, with and without boiling; antisera to MOSP^Fl, PrtP, PrcA1, PrcA2, PrcB.
For assay [5] the target is unchanged. Put plainly: SDS-PAGE without boiling, immunoblot; 2% DDM-solubilized pellet of sonicated T. denticola, run with and without boiling, anti-MOSP^Fl; TX-114 phase partitioning of the same material. In general terms: In western blotting, separated proteins are transferred to a membrane and probed.
Assay [6] has as its target major outer sheath protein, native periplasmic conformer (Treponema denticola ATCC 35405 (endogenous)). Put plainly: SDS-PAGE without boiling, immunoblot; NP-40 supernatant (OM conformer) and TX-114 aqueous phase (periplasmic conformer) of T. denticola in Laemmli buffer, with and without boiling; antisera to MOSP^Fl, PrtP, PrcA1, PrcA2, PrcB.
Assay [7] shares this target. Put plainly: SDS-PAGE without boiling, immunoblot; 2% DDM-solubilized pellet of sonicated T. denticola, run with and without boiling, anti-MOSP^Fl; TX-114 phase partitioning of the same material.

“MOSP expressed in E. coli with a PelB signal sequence (natural protein)” displayed a stoichiometry N in assay [1] of 3.

As to “MOSP^C, C-terminal domain of the major outer sheath protein (recombinant, refolded) (domain or fragment)”, the stoichiometry N in assay [2] and in assay [3] was 3 each time.

“major outer sheath protein, native outer membrane conformer (natural protein)”: the stoichiometry N in assay [4] and in assay [5] was 3 in each case.

As to “major outer sheath protein, native periplasmic conformer (natural protein)”, the stoichiometry N in assay [6] and in assay [7] was 3 throughout.

The record behind these values is publication PMC5643300.
